assay: soluble on expression in E. coli; label from the status in PepcDB or PDB records

Sequence	soluble on expression in E. coli
MGHHHHHHSHMANVLCNRARLVSYLPGFCSLVKRVVNPKAFSTAGSSGSDESHVAAAPPDICSRTVWPDETMGPFGPQDQRFQLPGNIGFDCHLNGTASQKKSLVHKTLPDVLAEPLSSERHEFVMAQYVNEFQGNDAPVEQEINSAETYFESARVECAIQTCPELLRKDFESLFPEVANGKLMILTVTQKTKNDMTVWSEEVEIEREVLLEKFINGAKEICYALRAEGYWADFIDPSSGLAFFGPYTNNTLFETDERYRHLGFSVDDLGCCKVIRHSLWGTHVVVGSIFTNATPDSHIMKKLSGN	not soluble
MGHHHHHHSHMDKQSSAGGVKRSVPCDSNEANEMMPETPTGDSDPQPAPKKMKTSESSTILVVRYRRNFKRTSPEELLNDHARENRINPLQMEEEEFMEIMVEIPAK	not soluble
MGHHHHHHSHMDSKAIAERIKKLQAQQEHVRIGGKGTPRRKKKVIHKTAAADDKKLQSNLKKLSVTNIPGIEEVNMIKDDGTVIHFNNPKVQTSVPANTFSVTGSADNKQITEMLPGILNQLGPESLTHLKKLANNVTKLGPDGKGEDEDVPELVGDFDAASKNETKADEQ	not soluble
MGHHHHHHSHMEDYSQEDWGNHSQDLHGYPTDQELDEIPVTKRTLKIKQESSEEAQKRDIMQNIVQILESVQLKWELFQSWTDFSRLHLSNKLAIFGIGYNTRWKEDIRYHYAEISSQVPLGKRLREYFNSEKPEGRIIMTRVQKMNWKNVYYKFLEITISEARCLELHMEIDWIPIAHSKPTGGNVVQYLLPGGIPKSPGLYAIGYEECIERPLSPHMEQSSLDPGKEGRVDLETLSAQASLQVEIEPTRIIYCYLGIAEVRTLQQCLFLHFQANTKTFSKDWVGINGFLSQNCIVDPGVSPKSIYIKFVEVERDFLSAGSLVECLEKAIGYPLKFNN	not soluble
MGHHHHHHSHMFGCLVAGRLVQTAAQQVAEDKFVFDLPDYESINHVVVLMLGTIPFPEGMGGSVYFSYPDSMDASMALLGFVTNGKPSAIFKISGLKSGEGSQHPFGAMNIVRTPSVAQIGISVELLDSMAQQTPVGNAAVSSVDSFTQFTQKMLDNFYNFASSFAVSQAQMTPSPSEMFIPANVVLKWYENFQRRLAQNPLFWKT	not soluble
MGHHHHHHSHMGQFYEAESCLVEAGRLPAGQRRFAHFPGLASELLLTGLPLELIDGSTLSMPVRWVTGLLKELHVRLERRSRLVVLSTVGVPGTGKSTLLNTMFGLRFATGKSCGPRGAFMQLITVAEGFSQDLGCDHILVIDSGGLIGGALTSAGDRFELEASLATLLMGLSNVTVISLAETKDIPAAILHAFLRLEKTGHMPNYQFVYQNLHDVSVPGPRPRDKRQLLDPPGDLSRAAAQMEKQGDGFRALAGLAFCDPEKQHIWHIPGLWHGAPPMAAVSLAYSEAIFELKRCLLENIRNGLSNQNKNIQQLIELVRRL	not soluble
MGHHHHHHSHMGTVKQLLLFSETEGNPCFLDICGNFLVVGTDLAHFKSFDLSRREAKAHCSCRSLAELVPGVGGIASLRCSSSGSTISILPSKADNSPDSKICFYDVEMDTVTVFDFKTGQIDRRETLSFNEQETNKSHLFVDEGLKNYVPVNHFWDQSEPRLFVCEAVQETPRSQP	soluble
MGHHHHHHSHMIDKATGILLYGLASRLRDTRRLSFLVSYIASKKIHTEPQLSAALEYVRSHPLDPIDTVDFERECGVGVIVTPEQIEEAVEAAINRHRPQLLVERYHFNMGLLMGEARAVLKWADGKMIKNEVDMQVLHLLGPKLEADLE	soluble
MGHHHHHHSHMKTRQAFYLHTTKLTRIARRLCREILRPWHAARHPYLPINSAAIKAECTARLPEASQSPLVLKQAVRKPLEAVLRYLETHPRPPKPDPVKSVSSVLSSLTPAKVAPVINNGSPTILGKRSYEQHNGVDGNMKKRLLMPSRGLANHGQTRHMGPSRNLLLNGKSYPTKVRLIRGGSLPPVKRRRMNWIDAPDDVFYMATEETRKIRKLLSSSETKRAARRPYKPIALRQSQALPPRPPPPAPVNDEPIVIED	soluble
MGHHHHHHSHMKTTLKMTALAALSAFVLAGCGSHQMKSEGHANMQLQQQAVLGLNWMQDSGEYKALAYQAYNAAKVAFDHAKVAKGKKKAVVADLDETMLDNSPYAGWQVQNNKPFDGKDWTRWVDARQSRAVPGAVEFNNYVNSHNGKVFYVTNRKDSTEKSGTIDDMKRLGFNGVEESAFYLKKDKSAKAARFAEIEKQGYEIVLYVGDNLDDFGNTVYGKLNADRRAFVDQNQGKFGKTFIMLPNANYGGWEGGLAEGYFKKDTQGQIKARLDAVQAWDGK	not soluble
MGHHHHHHSHMLLTPRQDEIVALAKANGRVLVDELAARFSVTPQTIRKDLNDLCDTRVLTRIHGGALFPSGNENVKYEARRAIASVEKQAIGAAAAALIPNNSSLFINIGTTTEAVGEALADHHELMVITNNINVANRLRVFPGIEVVIAGGVVRGSDGGIVGEAAVDFIRQFKVDFAVIGVSAIDEDGALLDFDFREVKVAQAIISNARHVILVSDSLKFERTAPVRIGHLSQVHTFITDHCPVDSIRSICADHDVRLIETEARDA	soluble
MGHHHHHHSHMNFIKDNSRALIQRMGMTVIKQITDDLFVWNVLNREEVNIICCEKVEQDAARGIIHMILKKGSESCNLFLKSLKEWNYPLFQDLNGQSLFHQ	not soluble
MGHHHHHHSHMPKKKTGARKKAENRREREKQLRASRSTIDLAKHPCNASMECDKCQRRQKNRAFCYFCNSVQKLPICAQCGKTKCMMKSSDCVIKHAGVYSTGLAMVGAICDFCEAWVCHGRKCLSTHACACPLTDAECVECERGVWDHGGRIFSCSFCHNFLCEDDQFEHQASCQVLEAETFKCVSCNRLGQHSCLRCKACFCDDHTRSKVFKQEKGKQPPCPKCGHETQETKDLSMSTRSLKFGRQTGGEEGDGASGYDAYWKNLSSDKYGDTSYHDEEEDEYEAEDDEEEEDEGRKDSDTESSDLFTNLNLGRTYASGYAHYEEQEN	soluble
MGHHHHHHSHMQEEEEESWSTSSDLTISISEDDLILESPEPQPNPGGKMEGEDGIEALKLIHAEQERVALSTEKNCILQTLSSPDSEKESSTNAPTREPGQTPDSDVPRAQVGQHVATLKEHDNSVKEEATALLRKALTEECGRRSAIHSSESSCSLPSILNDNSGIKEAKPAVWLNSVPTREQEVSSGCGDKSKKENVAADIPITETEAYQLLKKATLQDNTNQTENRFQKTDASVSHLSGLNIGSGAFETKTANKIASEASFSSSEGSPLSRHENKKKPVINLKSNALWDESDDSNSEIEAALRPRNHNTDDSDDFYD	soluble
MGHHHHHHSHMQSYLPNDTVESGIHPVYFCSTHYIEMLLKAELPLVFSAFHMSGFAPSQICLQWITQCFWNYLDWIEICHYIATCVFLGPDYQVYICIAVFKHLQQDILQHTQTQDLQVFLKEEALHGFRVSDYFEYMEILEQNYRTVLLRDMRNIRLQST	not soluble
MGHHHHHHSHMRENNLHTVCEEAKCPNIHECWAVRRTATFMILGSVCTRACRFCAVKTGLPTELDLQEPERVADSVALMNLKHAVITAVARDDQKDGGAGIFAETVRAIRRKSPFTTIEVLPSDMGGNYDNLKTLMDTRPDILNHNIETVRRLTPRVRARATYDRSLEFLRRAKEMQPDIPTKSSIMIGLGETKEEIIEVMDDLLANNVDIMAIGQYLQPTKKHLKVQKYYHPDEFAELKEIAMQKGFSHCEAGPLVRSSYHADEQVNEASKKRQAQA	soluble
MGHHHHHHSHMRGCGSRRLCGSWRGCWSWSGKPSTSSRPSPTAALRSWNNENKSALQLERQVKELKLGEPGSYQPAETAAKAQLSLMALPGEGYGGGHLDNEEEAPRPMLNIPGDLESREAMVAFFNSAGASAQEEQSVCCQPLAHPVASSQKKPEAAAPAPETGGESVCGDTHWALQEAMEKLQQLYGRRRWT	not soluble
MGHHHHHHSHMTIYDQHMHTLYSFDSEAQLRDYLTQTKAPVVTTEHLEFDNPDDGGRDNLPDYARMKATQAALAEKFPNEFLLGIEAGYFAPADARFRQYLDNHDFDLTLLSFHHDGHYDYLDEQLITMPAKQQLEDYFERMLAGLKRFHDADVLAHFDYALRRFDITPDQLEAWGKPLLDQIFTIAVENDLALELNTKSMYRWGNAPLYDQAIAWYQAAGGHLFTIGSDAHEGPQYEANFADALAMLKRHGVKEIATYRQHQRTMVPIEPPVIDADNAY	soluble

— the DeepSol protein solubility set
